In patent EP2586797A2 (Medtronic, Inc., dated 2013):
Changes are numbered by the printed parent chain.

B1: Composite human antibody variant VH4/VK1 (antibody, human IgG1, V domains shown)
VH: QVQLVQSGAEVKKPGASVKVSCTASGFNIKDTYIHWVRQARGQRLEWIGRFDPVNVNTRYDSRFRGRVTITSDASTNTAYMELSSLRSEDTAVYYCSRSYYNGRRRFTYWGQGTLVTVSS
VL: DIVMTQSPDSLTVSLGERATINCKASQSLLSSGNQKNYLTWYQQKPGQPPKLLIYWASIRESGVPDRFTGSGSGTFFTLTISSLQAEDVAVYYCQNDYNYPFTFGQGTKLEIK
notes: Human IgG1/kappa (pANT15/pANT13), NS0 cells; also called VH4/YK1
B2: Composite human antibody variant VH5/VK2 (antibody, human IgG1, V domains shown)
VH: B1 VH with N77S
VL: B1 VL with D9S, V13A, L15V, E17D, A19V, N22T
notes: Human IgG1/kappa (pANT15/pANT13), NS0 cells
B3: Composite human antibody variant VH5/VK1 (antibody, human IgG1, V domains shown)
VH: B1 VH with N77S
VL: B1 VL
notes: Human IgG1/kappa (pANT15/pANT13), NS0 cells; also called VH5/YK1
B4: MDT-2007 (composite human antibody sequence variant VH4/VK2) (antibody, human IgG1, V domains shown)
VH: B1 VH
VL: B1 VL with D9S, V13A, L15V, E17D, A19V, N22T
notes: as for B2
B5: mouse 6E10 anti-Aβ antibody (antibody, V domains shown)
VH: EVQLQQSGAELVKPGASVKLSCTASGFNIKDTYIHWVKQRPEQGLEWIGRFDPVNVNTRYDSRFRGKATITSDASSNTAYLHLNSLTSEDTAVYYCSRSYYNGRRRFTYWGQGTLVTVSA
VL: DIVMTQSPSSLTVTAGEKVALTCKASQSLLSSGNQKNYLTWYQQKPGQPPKLLIYWASIRESGVPDRFTGSGSGTFFTLTISSVQAEDLAVYYCQNDYNYPFTFGSGTKLEIK
notes: Murine monoclonal from hybridoma 6E10 (Covance); also called 6E10 mouse antibody

Each binder was assayed against T1, Abeta42 beta amyloid peptide (UniProt P05067 672-713) (assay: competition ELISA, purified antibody 0.003-16 ug/ml against biotinylated 6E10 (chimeric mouse 6E10) on coated beta amyloid, n=2).
T1 construct: domain: Abeta42 beta amyloid peptide; also called Aβ42; Aβ
T1 sequence (P05067 672-713 limits assumed): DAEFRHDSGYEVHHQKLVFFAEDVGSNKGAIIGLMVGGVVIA

Row | Binder | IC50 [µg/mL]
1 | B1 | 4.1
2 | B2 | 2.6
3 | B3 | 3.3
4 | B4 | 2.1
5 | B5 | 3.6

These binders were tested against T1, Abeta42 beta amyloid peptide (assay: competition ELISA, purified antibody against biotinylated 6E10 on coated beta amyloid; normalised to the row 'Mouse' (chimeric mouse 6E10); <1 improved).

Row | Binder | Fold Difference (IC50 normalised to the reference) [fold]
6 | B1 | 1.14
7 | B2 | 0.72
8 | B3 | 0.91
9 | B4 | 0.57

The binders below were run against T1, Abeta42 beta amyloid peptide (assay: competition ELISA, NS0 supernatant titrated against 0.25 ug/ml biotinylated mouse 6E10 (mouse MDT-2007) on coated beta amyloid; IC50 normalised to mouse 6E10 (=1; <1 improved)).

Row | Binder | fold difference in IC50 relative to mouse 6E10 [fold]
10 | B1 | 0.94
11 | B2 | 0.72
12 | B3 | 0.8
13 | B4 | 0.67

These binders were tested against T1, Abeta42 beta amyloid peptide (assay: competition ELISA, purified antibody on coated beta amyloid (Table 4), against the mouse reference).

Row | Binder | fold increase in binding compared to the mouse reference [fold]
14 | B4 | 1.72

These binders were tested against T1, Abeta42 beta amyloid peptide (assay: competition ELISA, purified antibody against biotinylated 6E10 (chimeric mouse 6E10) on coated beta amyloid; the reference row itself).

Row | Binder | Fold Difference (IC50 normalised to the reference) [fold]
15 | B5 | 1
